Experimental data reported in IntAct's records for PubMed 35512704.

B1: Speckle-type POZ protein (Homo sapiens), O43791 (parent)
chain: MSRVPSPPPPAEMSSGPVAESWCYTQIKVVKFSYMWTINNFSFCREEMGEVIKSSTFSSGANDKLKWCLRVNPKGLDEESKDYLSLYLLLVSCPKSEVRAKFKFSILNAKGEETKAMESQRAYRFVQGKDWGFKKFIRRDFLLDEANGLLPDDKLTLFCEVSVVQDSVNISGQNTMNMVKVPECRLADELGGLWENSRFTDCCLCVAGQEFQAHKAILAARSPVFSAMFEHEMEESKKNRVEINDVEPEVFKEMMCFIYTGKAPNLDKMADDLLAAADKYALERLKVMCEDALCSNLSVENAAEILILADLHSADQLKTQAVDFINYHASDVLETSGWKSMVVSHPHLVAEAYRSLASAQCPFLGPPRKRLKQS

Variants of: B1
Conditions: with brd4_human BRD4, O60885

Variant | effect of a mutation on the interaction
F133V | disrupting interaction strength

Variants of: B1
Conditions: with ncoa3_human NCOA3, Q9Y6Q9

Variant | effect of a mutation on the interaction
F133V | disrupting interaction strength

Variants of: B1
Conditions: with jun_human JUN

Variant | effect of a mutation on the interaction
F133V | with no effect

Variants of: B1
Conditions: with akt1_human AKT1, P31749

Variant | effect of a mutation on the interaction
F133V | with no effect

Variants of: B1
Conditions: with alk_human ALK

Variant | effect of a mutation on the interaction
F133V | with no effect

Variants of: B1
Conditions: with aph1a_human APH1A

Variant | effect of a mutation on the interaction
F133V | with no effect

Variants of: B1
Conditions: with arnt_human ARNT

Variant | effect of a mutation on the interaction
F133V | with no effect

Variants of: B1
Conditions: with asxl2_human ASXL2, Q76L83

Variant | effect of a mutation on the interaction
F133V | with no effect

Variants of: B1
Conditions: with bakor_human ATG14, Q6ZNE5

Variant | effect of a mutation on the interaction
F133V | with no effect

Variants of: B1
Conditions: with atm_human ATM

Variant | effect of a mutation on the interaction
F133V | with no effect

Variants of: B1
Conditions: with atpb_human ATP5F1B

Variant | effect of a mutation on the interaction
F133V | with no effect

Variants of: B1
Conditions: with aurkb_human AURKB

Variant | effect of a mutation on the interaction
F133V | with no effect

Variants of: B1
Conditions: with axin2_human AXIN2, Q9Y2T1

Variant | effect of a mutation on the interaction
F133V | with no effect

Variants of: B1
Conditions: with ufo_human AXL

Variant | effect of a mutation on the interaction
F133V | with no effect

Variants of: B1
Conditions: with za2g_human AZGP1, P25311

Variant | effect of a mutation on the interaction
F133V | with no effect

Variants of: B1
Conditions: with b2mg_human B2M

Variant | effect of a mutation on the interaction
F133V | with no effect

Variants of: B1
Conditions: with bap1_human BAP1, Q92560

Variant | effect of a mutation on the interaction
F133V | with no effect

Variants of: B1
Conditions: with bcor_human BCOR

Variant | effect of a mutation on the interaction
F133V | with no effect

Variants of: B1
Conditions: with birc2_human BIRC2, Q13490

Variant | effect of a mutation on the interaction
F133V | with no effect

Variants of: B1
Conditions: with brd4_human BRD4, O60885
Remark: another data set of the same source

Variant | effect of a mutation on the interaction
F133V | with no effect

Variants of: B1
Conditions: with baba2_human BABAM2, Q9NXR7

Variant | effect of a mutation on the interaction
F133V | with no effect

Variants of: B1
Conditions: with btg1_human BTG1, P62324

Variant | effect of a mutation on the interaction
F133V | with no effect

Variants of: B1
Conditions: with btk_human BTK

Variant | effect of a mutation on the interaction
F133V | with no effect

Variants of: B1
Conditions: with ccnd1_human CCND1, P24385

Variant | effect of a mutation on the interaction
F133V | with no effect

Variants of: B1
Conditions: with ccnd2_human CCND2, P30279

Variant | effect of a mutation on the interaction
F133V | with no effect

Variants of: B1
Conditions: with ccnd3_human CCND3, P30281

Variant | effect of a mutation on the interaction
F133V | with no effect

Variants of: B1
Conditions: with cd44_human CD44, P16070

Variant | effect of a mutation on the interaction
F133V | with no effect

Variants of: B1
Conditions: with cd79b_human CD79B

Variant | effect of a mutation on the interaction
F133V | with no effect

Variants of: B1
Conditions: with cdc73_human CDC73, Q6P1J9

Variant | effect of a mutation on the interaction
F133V | with no effect

Variants of: B1
Conditions: with cdk4_human CDK4, P11802

Variant | effect of a mutation on the interaction
F133V | with no effect

Variants of: B1
Conditions: with cdk6_human CDK6, Q00534

Variant | effect of a mutation on the interaction
F133V | with no effect

Variants of: B1
Conditions: with cdn2c_human CDKN2C

Variant | effect of a mutation on the interaction
F133V | with no effect

Variants of: B1
Conditions: with chd1l_human CHD1L

Variant | effect of a mutation on the interaction
F133V | with no effect

Variants of: B1
Conditions: with chd2_human CHD2, O14647

Variant | effect of a mutation on the interaction
F133V | with no effect

Variants of: B1
Conditions: with ch3l1_human CHI3L1, P36222

Variant | effect of a mutation on the interaction
F133V | with no effect

Variants of: B1
Conditions: with cul3_human CUL3, Q13618

Variant | effect of a mutation on the interaction
F133V | with no effect

Variants of: B1
Conditions: with cul4b_human CUL4B

Variant | effect of a mutation on the interaction
F133V | with no effect

Variants of: B1
Conditions: with daxx_human DAXX

Variant | effect of a mutation on the interaction
F133V | with no effect

Variants of: B1
Conditions: with ddx5_human DDX5, P17844

Variant | effect of a mutation on the interaction
F133V | with no effect

Variants of: B1
Conditions: with dll3_human DLL3, Q9NYJ7

Variant | effect of a mutation on the interaction
F133V | with no effect

Variants of: B1
Conditions: with duox2_human DUOX2, Q9NRD8

Variant | effect of a mutation on the interaction
F133V | with no effect

Variants of: B1
Conditions: with e2f2_human E2F2, Q14209

Variant | effect of a mutation on the interaction
F133V | with no effect

Variants of: B1
Conditions: with e2f3_human E2F3, O00716

Variant | effect of a mutation on the interaction
F133V | with no effect

Variants of: B1
Conditions: with e2f5_human E2F5, Q15329

Variant | effect of a mutation on the interaction
F133V | with no effect

Variants of: B1
Conditions: with e2f6_human E2F6, O75461

Variant | effect of a mutation on the interaction
F133V | with no effect

Variants of: B1
Conditions: with e2f8_human E2F8, A0AVK6

Variant | effect of a mutation on the interaction
F133V | with no effect

Variants of: B1
Conditions: with if4e_human EIF4E

Variant | effect of a mutation on the interaction
F133V | with no effect

Variants of: B1
Conditions: with epha7_human EPHA7, Q15375

Variant | effect of a mutation on the interaction
F133V | with no effect

Variants of: B1
Conditions: with ephb1_human EPHB1, P54762

Variant | effect of a mutation on the interaction
F133V | with no effect

Variants of: B1
Conditions: with erbb3_human ERBB3, P21860

Variant | effect of a mutation on the interaction
F133V | with no effect

Variants of: B1
Conditions: with erbb4_human ERBB4, Q15303

Variant | effect of a mutation on the interaction
F133V | with no effect

Variants of: B1
Conditions: with esr1_human ESR1, P03372

Variant | effect of a mutation on the interaction
F133V | with no effect

Variants of: B1
Conditions: with etv1_human ETV1, P50549

Variant | effect of a mutation on the interaction
F133V | with no effect

Variants of: B1
Conditions: with ezh1_human EZH1, Q92800

Variant | effect of a mutation on the interaction
F133V | with no effect

Variants of: B1
Conditions: with ezh2_human EZH2, Q15910

Variant | effect of a mutation on the interaction
F133V | with no effect

Variants of: B1
Conditions: with facd2_human FANCD2, Q9BXW9

Variant | effect of a mutation on the interaction
F133V | with no effect

Variants of: B1
Conditions: with fgf19_human FGF19, O95750

Variant | effect of a mutation on the interaction
F133V | with no effect

Variants of: B1
Conditions: with fgfp1_human FGFBP1, Q14512

Variant | effect of a mutation on the interaction
F133V | with no effect

Variants of: B1
Conditions: with fgfr4_human FGFR4, P22455

Variant | effect of a mutation on the interaction
F133V | with no effect

Variants of: B1
Conditions: with fumh_human FH

Variant | effect of a mutation on the interaction
F133V | with no effect
